{"source": "patent US8008452B2", "about": "“Phosphorylated Ndr kinase” (Novartis Forschungesstiftung, Zweigniederlassung Friedrich …, priority 2002, dated 2011)", "key": {"GST-NDR1 [1]": {"target": "T1, GST-NDR1 (Homo sapiens, UniProt Q15208)", "T1 construct": "made in house; host or cells: E. coli BL21-DE3-pRep4", "T1 sequence (Q15208 2-465)": "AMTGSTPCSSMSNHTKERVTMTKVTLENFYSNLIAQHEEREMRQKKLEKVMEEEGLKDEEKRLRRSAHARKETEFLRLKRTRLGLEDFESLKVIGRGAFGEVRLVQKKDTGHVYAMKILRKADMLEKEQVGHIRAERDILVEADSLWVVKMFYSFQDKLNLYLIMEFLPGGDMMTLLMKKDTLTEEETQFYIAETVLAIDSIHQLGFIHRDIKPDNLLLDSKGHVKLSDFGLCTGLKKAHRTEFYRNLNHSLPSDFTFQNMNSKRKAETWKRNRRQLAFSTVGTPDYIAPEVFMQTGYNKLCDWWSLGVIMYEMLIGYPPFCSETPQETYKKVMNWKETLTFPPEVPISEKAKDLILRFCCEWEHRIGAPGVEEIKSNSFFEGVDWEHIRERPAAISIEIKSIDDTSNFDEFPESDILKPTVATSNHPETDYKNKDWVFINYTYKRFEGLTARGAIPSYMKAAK", "assay": "GST-NDR1 in vitro autophosphorylation, incorporated 32P by Cerenkov counting", "assay_type": "biochemical", "settings": "in vitro", "protocol": "(§1) BL21-DE3-pRep4 E. coli strain was transformed with the pGEX-2T_NDR1 wild type or mutant plasmids. BL21-DE3 is a protease-deficient E. coli strain and pRep4 is a Laclq repressor-bearing plasmid both available commercially. Optionally, if desired, an E. coli strain comprising GroESL can be used, which expresses a chaperone protein that stabilizes the kinase. Mid-logarithmic phase cells were induced with 0.5 mM isopropyl beta-D-thiogalactopyranoside (IPTG) for 4 hours at 30° C. Bacteria were lysed using a French press in the presence of 1 mg/ml lysosyme, and the fusion proteins were purified on glutathione-agarose (Amersham Pharmacia Biotech) as described by the manufacturers. Recombinant proteins were assayed for kinase activity as described below and autophosphorylation was determined after SDS-PAGE separation either by Cerenkov counting or by exposure to a PhosphorImager screen followed by analysis with ImageQuant software (Molecular Dynamics).\n(§2) In brief, 1 microgram of purified GST-NDR1 (in solution ˜0.5 microM) wild type, kinase dead (K118A), and alanine mutants of phosphorylation residues Thr74, Ser281, and Thr444 were autophosphorylated for 2 hours in vitro without further additions or in the presence of 1 mM CaCl2 and 10 microM bovine S100B. Proteins were visualized on SDS gels using Coomassie Blue R-350 stained SDS-PAGE gel, and [gamma-^32P]ATP-labelled proteins were visualized by autoradiography of the gels developed on a Phosphorimager screen. The amount of incorporated ^32P was quantified by Cerenkov counting."}, "GST-NDR1 [2]": {"tested_on": "GST-NDR1", "assay": "GST-NDR1 in vitro autophosphorylation, incorporated 32P by Cerenkov counting", "assay_type": "biochemical, human", "settings": "GST-NDR1 variant", "protocol": "as §1, §2"}, "GST-NDR1 [3]": {"tested_on": "GST-NDR1", "assay": "GST-NDR1 kinase assay (peptide kinase assay)", "assay_type": "biochemical, human", "set-up": "Specific activity of GST-NDR1 variants, CTRL / Specific activity of GST-NDR1 variants, −S100B / Specific activity of GST-NDR1 variants, +S100B: unit not given here", "protocol": "1 microgram of purified recombinant GST-NDR1 wild type and mutants (without further treatment or autophosphorylated for 2 h in the presence or absence of 1 mM CaCl2 and […] (Sigma)) were assayed in 20 microliter of reaction mixture containing 20 mM Tris-HCl pH 7.5, 10 mM MgCl2, 1 mM DTT, 100 microM [gamma-^32P]ATP (˜0.5 microCi/microliter), and 1 mM NDR1 substrate peptide ([…]; SEQ ID NO:22). After 30 mins incubation at 30° C., reactions were stopped with 50 mM EDTA, and 10 microliters of reaction mixture were spotted onto 2 cm^2 squares of P81 phosphocellulose paper (Whatman). These were subsequently washed for 4×5 min and 3×20 min in 1% phosphoric acid and once in acetone before counting in a liquid scintillation counter. One unit of NDR1 activity was defined as the amount which catalyses the phosphorylation of 1 nmol peptide substrate in 1 min.\nSpecific activity of GST-NDR1 mutants was also measured by a peptide kinase assay as described above. For this purpose, 1 microgram of purified GST-NDR1 wild type and alanine mutants were left without further treatment or autophosphorylated for 2 h in the presence or absence of 1 mM CaCl2 and […]."}, "HA-NDR1": {"tested_on": "HA-NDR1", "assay": "HA-NDR1 kinase assay on 12CA5 immunoprecipitates from transfected, treated COS-1 cells", "assay_type": "cell-based, human", "set-up": "kinase activity of HA-NDR1 variants, −OA: unit not given here", "settings": "COS-1 cells", "protocol": "In some experiments, the cells were treated for 60 min with 1 microM okadaic acid in 0.1% N,N-dimethylformamide (DMF) (Alexis Corp.), 50 microM BAPTA-AM (1,2-bis (o-aminophenoxy) ethane-N,N,N′,N′-tetraacetic acid tetra (acetoxy-methyl)ester) in 0.1% diimethylsulfoxide (DMSO; Sigma), or 20 microM thapsigargin in 0.1% DMSO (Alomone) 24 hours after transfection.\nTransfected and treated COS-1 cells were washed once with ice-cold PBS, and harvested by rubber policeman in 1 ml ice-cold PBS containing 1 mM Na3VO4 and 20 mM beta-glycerophosphate before lysis in 500 microliters of IP buffer (20 mM Tris-HCl pH 8.0, 150 mM NaCl, 1% Nonidet P-40, 10% glycerol, 1 mM Na3VO4, 20 mM beta-glycerolphosphate, 1 microM microcystin-LR, 50 mM NaF, 0.5 mM PMSF, 4 microM leupeptin, 1 mM benzamidine, and 1 tablet/10 ml IP of Complete protease inhibitors (Roche)). Lysates were centrifuged at 20 000 g for 20 min and triplicate aliquots (200 microg) of supernatant were precleared with protein A-Sepharose (Amersham Pharmacia Biotech) for 60 min and mixed subsequently for 3 h at 4° C. with 12CA5 antibody prebound to protein A-Sepharose (˜1 microg antibody bound to 2 microl beads). The beads were then washed twice with IP buffer, once for 10 min with IP buffer containing 1 M NaCl, once again for 10 min with IP buffer, and finally twice with 20 mM Tris-HCl pH 7.5 containing 4 microM leupeptin and 1 mM benzamidine. Thereafter, beads were resuspended in 30 microliters buffer containing 20 mM Tris-HCl pH 7.5, 10 mM MgCl2, 1 mM DTT, 100 microM [gamma-^32P]ATP (˜0.1 microCi/microliter), 1 microM cAMP-dependent protein kinase inhibitor peptide PKI (Bachem), 4 microM leupeptin, 1 mM benzamidine, 1 microM microcystin-LR, and 1 mM NDR1 substrate peptide ([…]). After 60 min incubation at 30° C., 15 microliters of supernatant were removed, and phosphate incorporation into the substrate peptide determined as described for GST-NDR1 above.\nCOS-1 cells expressing either wild type HA-NDR1 or the indicated mutants were treated for 1 h with 1 microM okadaic acid or with solvent alone. HA-tagged NDR kinase variants were then immunoprecipitated (out of 100 microgram of detergent extracts) with 12CA5 monoclonal antibody and assayed for kinase activity by a peptide kinase assay as described above.\nMock-transfected or HA-NDR1-expressing COS-1 cells were treated for 1 h with […], 50 microM BAPTA-AM, and […] or with solvent (0.1% DMF or 0.1% DMSO) alone. 12CA5 immunoprecipitates (out of 100 microgram protein extract) were then assayed using the peptide kinase assay for NDR1 kinase activity.\nTo test whether hMOB1 plays a role in NDR activation, myc-hMOB1 or the empty vector was cotransfected with HA-NDR1 in COS1 cells and treated with OA. 12CA5 immunoprecipitates were then assayed using the peptide kinase assay for HA-NDR kinase activity. […] GST-MOB and GST respectively was added to immunoprecipitated HA-NDR and kinase reaction were performed. The reactions were resolved on a 10% SDS PAGE and the radioactivity visualised by using a phosphoimager."}}, "data": [{"substance": "WT: human NDR1 wild type; GST fusion in the 2nd table, the 3rd table, HA-tagged in the 4th table", "values": [{"measurement": "autophosphorylation of wild-type GST-NDR1 in vitro", "setting": "GST-NDR1 [1]", "value": "up to 0.4 pmol ATP/pmol GST-NDR1"}, {"measurement": "amount of incorporated 32P (autophosphorylation), −S100B", "setting": "GST-NDR1 [2]; 1 microgram, autophosphorylated 2 hours without further additions, pmol ATP/pmol GST-NDR1", "value": 0.1688}, {"measurement": "amount of incorporated 32P (autophosphorylation), +S100B", "setting": "GST-NDR1 [2]; 2 hours in the presence of 1 mM CaCl2 and 10 microM bovine S100B, in pmol ATP/pmol GST-NDR1", "value": 0.3512}, {"measurement": "Specific activity of GST-NDR1 variants, −S100B", "setting": "GST-NDR1 [3]; autophosphorylated 2 h in the absence of CaCl2 and S100B", "value": 4.106}, {"measurement": "Specific activity of GST-NDR1 variants, +S100B", "setting": "GST-NDR1 [3]; autophosphorylated 2 h in the presence of 1 mM CaCl2 and 10 mM bovine S100B", "value": 21.348}, {"measurement": "Specific activity of GST-NDR1 variants, CTRL", "setting": "GST-NDR1 [3]; left without further treatment", "value": 1}, {"measurement": "kinase activity of HA-NDR1 variants, +OA", "setting": "HA-NDR1; 1 microM okadaic acid 1 h", "value": 10.8852}, {"measurement": "kinase activity of HA-NDR1 variants, −OA", "setting": "HA-NDR1; solvent alone 1 h", "value": 0.3532}]}]}
